# Key:
# Format in all cases: biochemical
# Details in all cases: pH 8.0, RT, 405 nm
# [1] = Activity determination and kinetic constants with chromogenic substrate Chromozym X
# Description: (§1) The activity of the renatured activated rFXTa proteases was determined with the chromogenic substrates Chromozym® X (N-methoxycarbonyl-D-Nle-Gly-Arg-pNA, Boehringer Mannheim GmbH, Mannheim, Cat. No. 789763), Chromozym® U (Bz-β-Ala-Gly-Arg-pNA, Boehringer Mannheim GmbH, Mannheim, Cat. No.836583), Chromozym® PK (Bz-Pro-Phe-Arg-pNA, Boehringer Mannheim GmbH, Mannheim, Cat. No. 378445) and Chromozym® TH (Tosyl-Gly-Pro-Arg-pNA, Boehringer Mannheim GmbH, Mannheim, Cat. No. 838268) in comparison with recombinant rFXa (rFX-EGF2-AP-CD; preparation and description see PCT/EP97/03027) and native human trypsin (Sigma-Aldrich Chemie GmbH, Deisenhofen, Germany, Cat. No. T6424). Abbreviations: Bz, benzoyl; pNA, p-nitroaniline.
# (§2) 10-100 μl sample was filled up to 200 μl with 190-100 μl 50 mmol/l Tris-HCl, 150 mmol/l NaCl, 5 mmol/l CaCl2, 0.1% PEG 8000, pH 8.0 and 20 μl Chromozym® X, U, PK and TH (0.5-40 mmol/l) were added to and measured against a reagent blank value in an ELISA reader at a wavelength of 405 nm and RT. The activity and the kinetic constants were determined from the linear initial slope according to the Michaelis Menten equation.
# [2] = Activity determination and kinetic constants with chromogenic substrate Chromozym U
# Description: as §1, §2
# [3] = Activity determination and kinetic constants with chromogenic substrate Chromozym PK
# Description: as §1, §2
# [4] = Activity determination and kinetic constants with chromogenic substrate Chromozym TH
# Description: as §1, §2
substance,measurement,setting,value
"trypsin: native human trypsin (Sigma-Aldrich, Cat. No. T6424)",Km,[1],43 µM
same,kcat,[1],153 s⁻¹
same,Km,[2],208 µM
same,kcat,[2],225 s⁻¹
same,Km,[3],17 µM
same,kcat,[3],38 s⁻¹
same,Km,[4],13 µM
same,kcat,[4],95 s⁻¹
